{
  "source": "paper PMC5707476",
  "about": "“Enzyme repurposing of a hydrolase as an emergent peroxidase upon metal binding” (Chemical Science, 2015)",
  "proteins": {"B1": {"name": "6-phosphogluconolactonase (6-PGLac; Cu·6-PGLac) (Mycolicibacterium smegmatis MC2 155; N131D) (protein)", "chain": "MSDTVIERHADTAALVAAAGDRLVDAISSAIGERGQATIVLTGGGTGIGLLKRVRERSGEIDWSKVHIYWGDERFVPQDDDERNDKQAREALLDHIGIPPVNVHAMAASDGEFGDDLEAAAAGYAQLLSADFDSSVPGFDVHLLGMGGEGHVNSLFPDTDAVRETERLVVGVSDSPKPPPRRITLTLPAVQNSREVWLVVSGEAKADAVAAAVGGADPVDIPAAGAVGRERTVWLVDEAAAAKL", "notes": "Strep-tag II, expressed in E. coli, purified, loaded with Cu(II)"}, "B2": {"name": "6-phosphogluconolactonase (6-PGLac; Cu·6-PGLac) (Mycolicibacterium smegmatis MC2 155; N131D/Y69F) (protein)", "chain": "B1 chain with Y69F", "notes": "as for B1"}, "B3": {"name": "6-phosphogluconolactonase (6-PGLac; Cu·6-PGLac) (Mycolicibacterium smegmatis MC2 155; N131D/Y69W) (protein)", "chain": "B1 chain with Y69W", "notes": "as for B1"}, "B4": {"name": "6-phosphogluconolactonase (6-PGLac; Cu·6-PGLac) (Mycolicibacterium smegmatis MC2 155; N131D/Y69L) (protein)", "chain": "B1 chain with Y69L", "notes": "as for B1"}, "B5": {"name": "6-phosphogluconolactonase (6-PGLac; Cu·6-PGLac) (Mycolicibacterium smegmatis MC2 155; H9A/N131D) (protein)", "chain": "B1 chain with H9A", "notes": "as for B1"}, "B6": {"name": "6-phosphogluconolactonase (6-PGLac; Cu·6-PGLac) (Mycolicibacterium smegmatis MC2 155; H95A/N131D) (protein)", "chain": "B1 chain with H95A", "notes": "as for B1"}},
  "substrate": "COc1cc(-c2ccc(N)c(OC)c2)ccc1N",
  "assay": "purified protein",
  "type": "biochemical, Mycolicibacterium smegmatis",
  "conditions": "6.6 mM t-BuOOH, 4.5 μM Cu(II)",
  "key": {"[1]": {"conditions": "6-PGLac (parent), 1.25 μM protein, MES pH 6.5, 150 mM NaCl, 25 °C, free copper background subtracted"}, "[2]": {"conditions": "D131N (reversion of parent N131D = natural sequence), 1.25 μM protein, MES pH 6.5, 150 mM NaCl, 25 °C, free copper background subtracted"}, "[3]": {"conditions": "Y69F on the N131D parent, MES pH 6.5, 25 °C"}, "[4]": {"conditions": "Y69W on the N131D parent, MES pH 6.5, 25 °C"}, "[5]": {"conditions": "Y69L on the N131D parent, MES pH 6.5, 25 °C"}, "[6]": {"conditions": "H9A on the N131D parent, MES pH 6.5, 25 °C"}, "[7]": {"conditions": "H95A on the N131D parent, MES pH 6.5, 25 °C"}},
  "note": "Changes are numbered by the printed parent chain. Numbers in names are those of the source.",
  "data": [
    {"protein": "B1", "values": [
      {"measurement": "Km", "setting": "[1]", "value": "11 ± 3", "unit": "µM"},
      {"measurement": "kcat", "setting": "[1]", "value": "78 ± 4 × 10^-3 s^-1"},
      {"measurement": "kcat/Km", "setting": "[1]", "value": "6900 ± 2000", "unit": "M⁻¹ s⁻¹"},
      {"measurement": "Km", "setting": "[2]", "value": "21 ± 6", "unit": "µM"},
      {"measurement": "kcat", "setting": "[2]", "value": "150 ± 10 × 10^-3 s^-1"},
      {"measurement": "kcat/Km", "setting": "[2]", "value": "7200 ± 2000", "unit": "M⁻¹ s⁻¹"}
    ]},
    {"protein": "B2", "values": [
      {"measurement": "Km", "setting": "[3]", "value": "36 ± 8", "unit": "µM"},
      {"measurement": "kcat", "setting": "[3]", "value": "100 ± 7 × 10^-3 s^-1"},
      {"measurement": "kcat/Km", "setting": "[3]", "value": "2900 ± 700", "unit": "M⁻¹ s⁻¹"}
    ]},
    {"protein": "B3", "values": [
      {"measurement": "Km", "setting": "[4]", "value": "4.8 ± 2", "unit": "µM"},
      {"measurement": "kcat", "setting": "[4]", "value": "33 ± 2 × 10^-3 s^-1"},
      {"measurement": "kcat/Km", "setting": "[4]", "value": "6900 ± 3000", "unit": "M⁻¹ s⁻¹"}
    ]},
    {"protein": "B4", "values": [
      {"measurement": "Km", "setting": "[5]", "value": "82 ± 10", "unit": "µM"},
      {"measurement": "kcat", "setting": "[5]", "value": "490 ± 30 × 10^-3 s^-1"},
      {"measurement": "kcat/Km", "setting": "[5]", "value": "5900 ± 900", "unit": "M⁻¹ s⁻¹"}
    ]},
    {"protein": "B5", "values": [
      {"measurement": "Km", "setting": "[6]", "value": "12 ± 5", "unit": "µM"},
      {"measurement": "kcat", "setting": "[6]", "value": "80 ± 6 × 10^-3 s^-1"},
      {"measurement": "kcat/Km", "setting": "[6]", "value": "6500 ± 3000", "unit": "M⁻¹ s⁻¹"}
    ]},
    {"protein": "B6", "values": [
      {"measurement": "Km", "setting": "[7]", "value": "17 ± 5", "unit": "µM"},
      {"measurement": "kcat", "setting": "[7]", "value": "80 ± 6 × 10^-3 s^-1"},
      {"measurement": "kcat/Km", "setting": "[7]", "value": "4600 ± 2000", "unit": "M⁻¹ s⁻¹"}
    ]}
  ]
}
